Assay [1] has as its target Human FAP (fibroblast activation protein) on cells (human, UniProt Q12884 1-760). The assay can be described thus: cell-based or functional assay.
In assay [2] the target is T1, human EpCAM/TROP-1 protein (Sino Biological Inc, #10694-H02H-50) (human, UniProt P16422 24-265).
T1 construct: also called recombinant EpCAM protein; recombinant EpCAM
T1 sequence (looked up): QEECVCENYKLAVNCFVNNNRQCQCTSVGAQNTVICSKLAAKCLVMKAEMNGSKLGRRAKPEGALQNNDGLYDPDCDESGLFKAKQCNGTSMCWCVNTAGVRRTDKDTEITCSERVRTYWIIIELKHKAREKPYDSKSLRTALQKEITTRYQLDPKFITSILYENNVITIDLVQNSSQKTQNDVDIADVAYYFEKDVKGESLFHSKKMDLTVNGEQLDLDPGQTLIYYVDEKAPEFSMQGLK
The assay can be described thus: ELISA on plate-coated human EpCAM/TROP-1 (50 ng/well), anti-His detection, A450.

The target of assay [3] is T2, human FAP/seprase protein (Sino Biological Inc, 10464-H07H-10) (human, UniProt Q12884 26-760).
T2 construct: also called recombinant FAP protein; FAP protein
The assay can be described thus: ELISA on plate-coated human FAP/seprase (100 ng/well), anti-His detection, A450.

The next assay concerns the target T3, Human EpCAM on cells (human, UniProt P16422 24-314).
T3 sequence: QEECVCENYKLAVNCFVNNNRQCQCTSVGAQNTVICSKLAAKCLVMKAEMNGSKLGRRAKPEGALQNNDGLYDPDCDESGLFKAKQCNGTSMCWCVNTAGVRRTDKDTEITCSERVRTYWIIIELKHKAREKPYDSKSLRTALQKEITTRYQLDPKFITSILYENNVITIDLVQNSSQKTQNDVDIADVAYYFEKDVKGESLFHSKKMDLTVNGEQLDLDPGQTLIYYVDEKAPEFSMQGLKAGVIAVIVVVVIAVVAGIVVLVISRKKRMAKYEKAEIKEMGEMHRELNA
Kind of assay: cell-based or functional assay.

B1: FAP bispecific T-cell activator (anti-FAP scFv x anti-CD3 scFv, with N-terminal signal sequence and C-terminal deca-His affinity tag) (bispecific antibody)
chain: DIVMTQSPDSLAVSLGERATINCKSSQSLLYSRNQKNYLAWYQQKPGQPPKLLIFWASTRESGVPDRFSGSGFGTDFTLTISSLQAEDVAVYYCQQYFSYPLTFGQGTKVEIKGGGGSGGGGSGGGGSQVQLVQSGAEVKKPGASVKVSCKTSRYTFTEYTIHWVRQAPGQRLEWIGGINPNNGIPNYNQKFKGRVTITVDTSASTAYMELSSLRSEDTAVYYCARRRIAYGYDEGHAMDYWGQGTLVTVSSGGGGSDVQLVQSGAEVKKPGASVKVSCKASGYTFTRYTMHWVRQAPGQGLEWIGYINPSRGYTNYADSVKGRFTITTDKSTSTAYMELSSLRSEDTATYYCARYYDDHYCLDYWGQGTTVTVSSGEGTSTGSGGSGGSGGADDIVLTQSPATLSLSPGERATLSCRASQSVSYMNWYQQKPGKAPKRWIYDTSKVASGVPARFSGSGSGTDYSLTINSLEAEDAATYYCQQWSSNPLTFGGGTKVEIKHHHHHHHHHH
With B1, in assay [1], the “EC50 of T cell-mediated lysis of NHDF cells (LDH assay, 24 h, 8,000 NHDF with 40,000 T-cells)” value worked out at 3.2 ng/mL and the “EC50 of fibroblast (NHDF) lysis by LDH release after 24 h co-culture with PBMC T-cells” value was about 2.5 ng/mL.

B2: Control (Anti-FHA) bispecific T-cell activator (anti-FHA scFv x anti-CD3 scFv, with N-terminal signal sequence and C-terminal deca-His affinity tag) (bispecific antibody)
chain: ELDIVMTQAPASLAVSLGQRATISCRASKSVSSSGYNYLHWYQQKPGQPPKLLIYLASNLESGVPARFSGSGSGTDFTLNIHPVEEEDAATYYCQHSREFPLTFGAGTKLEIKSSGGGGSGGGGGGSSRSSLEVQLQQSGPELVKPGASVKISCKTSGYTFTGYTMHWVRQSHGKSLEWIGGINPKNGGIIYNQKFQGKATLTVDKSSSTASMELRSLTSDDSAVYYCARRVYDDYPYYYAMDYWGQGTSVTVSSAKTTPPSVTSGGGGSDVQLVQSGAEVKKPGASVKVSCKASGYTFTRYTMHWVRQAPGQGLEWIGYINPSRGYTNYADSVKGRFTITTDKSTSTAYMELSSLRSEDTATYYCARYYDDHYCLDYWGQGTTVTVSSGEGTSTGSGGSGGSGGADDIVLTQSPATLSLSPGERATLSCRASQSVSYMNWYQQKPGKAPKRWIYDTSKVASGVPARFSGSGSGTDYSLTINSLEAEDAATYYCQQWSSNPLTFGGGTKVEIKHHHHHHHHHH
Turning to B2, the binding result in assay [2] and in assay [3] was “no binding (tested: supernatant protein diluted 10-fold)” each time.

B3: EpCAM bispecific T-cell activator (anti-EpCAM scFv x anti-CD3 scFv, with N-terminal signal sequence and C-terminal deca-His affinity tag) (bispecific antibody)
chain: ELVMTQSPSSLTVTAGEKVTMSCKSSQSLLNSGNQKNYLTWYQQKPGQPPKLLIYWASTRESGVPDRFTGSGSGTDFTLTISSVQAEDLAVYYCQNDYSYPLTFGAGTKLEIKGGGGSGGGGSGGGGSEVQLLEQSGAELVRPGTSVKISCKASGYAFTNYWLGWVKQRPGHGLEWIGDIFPGSGNIHYNEKFKGKATLTADKSSSTAYMQLSSLTFEDSAVYFCARLRNWDEPMDYWGQGTTVTVSSGGGGSDVQLVQSGAEVKKPGASVKVSCKASGYTFTRYTMHWVRQAPGQGLEWIGYINPSRGYTNYADSVKGRFTITTDKSTSTAYMELSSLRSEDTATYYCARYYDDHYCLDYWGQGTTVTVSSGEGTSTGSGGSGGSGGADDIVLTQSPATLSLSPGERATLSCRASQSVSYMNWYQQKPGKAPKRWIYDTSKVASGVPARFSGSGSGTDYSLTINSLEAEDAATYYCQQWSSNPLTFGGGTKVEIKHHHHHHHHHH
Turning to B3, in the assay with Human EpCAM on cells, the “EC50 of T cell-mediated lysis of DLD cells (LDH assay, 24 h, 8,000 DLD with 40,000 T-cells)” value is 7.4 ng/mL.

The values are drawn from patent US20250026851A1 (AKAMIS BIO, published 2025).
